{"source": "the nanobody polyreactivity screen of Harvey et al. (2022)"}
{"assay": "yeast display, Sf9 membrane polyspecificity reagent, FACS + sequencing; frameworks hold sequencing errors", "outline": "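A synthetic nanobody library was expressed on Saccharomyces cerevisiae BJ5465 by galactose induction for 36–48 hours. The library was stained for 1 hour at 4 °C with 10% biotinylated, detergent-solubilized Sf9 membrane reagent and enriched with streptavidin microbeads before FACS. Low and high (top ~1%) gates were set on anti-HA fluorescence for expression and streptavidin fluorescence for reagent binding, and each polyreactivity label reflects the gate of origin.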"}
{"sequence": "QVQLVESGGGLVQAGGSLRLSCAASGSTFWYNTMGWYRQAPGKERELVAAISWSGGSTYADSVKGRFTISRDNAKNTVYLQMNSLKPEDTAVYYCNADDYYRYDYWGLGTQVTVSS", "polyreactivity (PSR sort gate)": "low polyreactivity"}
{"sequence": "QVQLVESGGGLVQAGGSLRLSCAASGSTFWYYAMGWSRQAPGKERELVAAIRRGGSTYYADSVKGRFTISRDNAKNTVYLQMNSLKPVDTAVYYCAAERPYKTFGYGYWGQGTQVTVSS", "polyreactivity (PSR sort gate)": "high polyreactivity"}
{"sequence": "QVQLVESGGGLVQAGGSLRLSCAASGSTFWYYAMGWYRQAPGKERELVAAITSSGSTYYADSVKGRFTISRDNAKNTVYLQMYSLKPEDTAVYYCAAEQWYGYASYDYWGQGTQVTVSS", "polyreactivity (PSR sort gate)": "high polyreactivity"}
{"sequence": "QVQLVESGGGLVQAGGSLRLSCAASGSTFWYYAMGWYRQAPGKERELVAAITSVDSTYYADSVKGRFTISRDNANNTVYLQMNSLKPEDTAVYYCAADLPWEDGYYFYSGYTEYDYWGQGTQVTVSS", "polyreactivity (PSR sort gate)": "low polyreactivity"}
{"sequence": "QVQLVESGGGLVQAGGSLRLSCAASGSTFWYYAMGWYRQAPGKERELVASITYSGGSTYYADSVKGRFTISRDNAKNTVYLQMNSLKPEDTAVYYCAAEGYYSNYHFWGQGTQVTVSS", "polyreactivity (PSR sort gate)": "low polyreactivity"}
{"sequence": "QVQLVESGGGLVQAGGSLRLSCAASGSTFWYYVMGWYRQAPGKERELVAAISIVGSTYYADSVKGRFTISRDNAKNTVYLQMNSLKPEDTAVYYFNAGYFRGSNAIKVRLTYDHWGQGTQVTVSS", "polyreactivity (PSR sort gate)": "low polyreactivity"}
{"sequence": "QVQLVESGGGLVQAGGSLRLSCAASGSTFYANAMGWYRQAPGKERELVAAISRSGGRTYYADSVKGRFTISRDNAKNTVFLQMNSLKPEDTAVYYCAKAYHHSEFDYWGQGTQVTVSS", "polyreactivity (PSR sort gate)": "high polyreactivity"}
{"sequence": "QVQLVESGGGLVQAGGSLRLSCAASGSTFYANAMGWYRQAPGKERELVADISFSGASTFYADSVKGRFTISRDNAKNTVYLQMNSLKPEDTAVYYCATDNPSVVGFDYWGQGTQVTVSS", "polyreactivity (PSR sort gate)": "low polyreactivity"}
{"sequence": "QVQLVESGGGLVQAGGSLRLSCAASGSTFYANDMGWYRQAPGKERELVASISLGDGSTYYADSVKGRFTISRDNAKNTVYLQMNSLKPEDTAVYYCAAGFYVWYWGFNYWGQGSQVTVSS", "polyreactivity (PSR sort gate)": "low polyreactivity"}
{"sequence": "QVQLVESGGGLVQAGGSLRLSCAASGSTFYAYAMGWYRQAPGKERELVAAIDSGGSTYYADSVKGRFTISRDNAKNTVYLQMNSLKPDDTAVYYCAVRHRYTRAYWGRDYWGQGTQVTVSS", "polyreactivity (PSR sort gate)": "low polyreactivity"}
{"sequence": "QVQLVESGGGLVQAGGSLRLSCAASGSTFYAYAMGWYRQAPGKERELVAAISSSGGSTYYADSVKGRFTISRDNAKNTVYLQMNSLKPEDTAVYYCAAYDSVQKYWILGFDYWGQGTQVTVSS", "polyreactivity (PSR sort gate)": "low polyreactivity"}
{"sequence": "QVQLVESGGGLVQAGGSLRLSCAASGSTFYDYAMGWYRQAPGKERELVAAINWSSDTTYYADSVKGRFTISRDNAKNTVYLQMNSLKPEDTAVYYCATDSAYRGYDYWGQGTQVTVSS", "polyreactivity (PSR sort gate)": "low polyreactivity"}
{"sequence": "QVQLVESGGGLVQAGGSLRLSCAASGSTFYDYAMGWYRQAPGKERELVASISISGGSTYADSVKRRFTISRDNAKNTVYLQMNSLKPEDTAVYYCNAKNYSWDDYDWVPDYEYWGQGTQVTVSS", "polyreactivity (PSR sort gate)": "low polyreactivity"}
{"sequence": "QVQLVESGGGLVQAGGSLRLSCAASGSTFYDYAMGWYRQAPGKERELVASISSGGGTYYADSVKGRFTISRDNAKNTVYLQMNSLKPEDTAVYYCADDDYSSYVYGTFDRYDYWGQGTQVTLSS", "polyreactivity (PSR sort gate)": "low polyreactivity"}
{"sequence": "QVQLVESGGGLVQAGGSLRLSCAASGSTFYDYVMGWYRKAPGKERELVAAITGDGTTDYADSVKGRFTISRDNAKNTVYLQMNSLKPEDTAVYYCNADISLDYDYWGQGTQVTVSS", "polyreactivity (PSR sort gate)": "low polyreactivity"}
{"sequence": "QVQLVESGGGLVQAGGSLRLSCAASGSTFYDYVMGWYRQAPGKERELVAAISRTGASTYYADSVKGRFTISRDNAKNTVYLQMNSLKPEDTAVYYCAADSDTVRYYYWGQGTQVTVSS", "polyreactivity (PSR sort gate)": "high polyreactivity"}
{"sequence": "QVQLVESGGGLVQAGGSLRLSCAASGSTFYEKAMGWYRQAPGKEREFVAAITQSGGSTYYADSVKGRFTISRDNAKNTVYLQMNSLKPEDTAVYYCAKVWPKHYRSLGYGYWGQGTQVTVSS", "polyreactivity (PSR sort gate)": "low polyreactivity"}
{"sequence": "QVQLVESGGGLVQAGGSLRLSCAASGSTFYEYAMGWYRPAPGKERELVAAISSGGSTYYADSVKGRFTISRDNAKNTVYLQMNSLKPEDTAVYYCNSDCQTYGGEYDYWGQGTQVTVSS", "polyreactivity (PSR sort gate)": "low polyreactivity"}
{"sequence": "QVQLVESGGGLVQAGGSLRLSCAASGSTFYEYAMGWYRQAPGKERELVAAIDERGGNTYYADSVKGRFTISRDNAKNTVYLQMNSLKPEVTAVYYCAADAYPFYQSYYPFEYWGQGTQVTVSS", "polyreactivity (PSR sort gate)": "low polyreactivity"}
{"sequence": "QVQLVESGGGLVQAGGSLRLSCAASGSTFYFYAKGWYRQAPGRELEWVAAISYSGGSTYYADSVKGRFTISRDNAKNTVYLQMNSLTPEDTAVYSCAADAAFYYDADDEYDYWGQGTQVTVSS", "polyreactivity (PSR sort gate)": "low polyreactivity"}
{"sequence": "QVQLVESGGGLVQAGGSLRLSCAASGSTFYFYDMGWYRQAPGKERELVATIDDGGGSTYYADSVKGRFTISRDNAKNTVYLQMNSLKPEDTAVYYCAADYFVYPDDWYDYWGQGTQVTVSS", "polyreactivity (PSR sort gate)": "low polyreactivity"}
{"sequence": "QVQLVESGGGLVQAGGSLRLSCAASGSTFYGNAMGWSRQAPGKERELVAAIRWRGGRTYYADSVKGRFTISRDNAKNTVYLQMNSLKPEDTAVYYCNALPGVSHTQYDRVGYWGQGTQVTVSS", "polyreactivity (PSR sort gate)": "high polyreactivity"}
{"sequence": "QVQLVESGGGLVQAGGSLRLSCAASGSTFYGNPLGWYRKAPGKERELVAAIRRSGGRTYYADSVKGRFTISRDNAKNTVYLQMNSLKPEDTAVYYCAAAKYSGAYRSTMNYWGQGTQVTVSS", "polyreactivity (PSR sort gate)": "high polyreactivity"}
{"sequence": "QVQLVESGGGLVQAGGSLRLSCAASGSTFYGYALGWYRQAPGKERELVAGITSAGSTYYADSVKGRFTISRDNAKNTVYLQMNSLKPEDTAVYYCAAVYRRWIWRERYYYCGQGTQVTVSS", "polyreactivity (PSR sort gate)": "high polyreactivity"}
{"sequence": "QVQLVESGGGLVQAGGSLRLSCAASGSTFYGYAMGWYRPAPGKERELVAAITRSGGSTYYADSVKGRFTISRDNAKNTVYLQMNSLKPEDTEVYYCNKYGYKGGVGYDYWGQGTQVTVSS", "polyreactivity (PSR sort gate)": "high polyreactivity"}
{"sequence": "QVQLVESGGGLVQAGGSLRLSCAASGSTFYGYAMGWYRQAPGKERELVAAISSSGTRTYYADSVKGRFTISRDNAKNTVYLQMNSLKPEDTAVYYCATDVRVGHIRDYDYWGQGTQVTVSS", "polyreactivity (PSR sort gate)": "high polyreactivity"}
{"sequence": "QVQLVESGGGLVQAGGSLRLSCAASGSTFYGYAMGWYRQAPGKERELVASITTRGGRTNYADSVKGRFTISRDNAKNTVYLQMNSLKPEDTAVYYCATYSYVTRYARWGEYDYWGQGTQVTVSS", "polyreactivity (PSR sort gate)": "high polyreactivity"}
{"sequence": "QVQLVESGGGLVQAGGSLRLSCAASGSTFYGYAMGWYRQPPGKERELVAAITIGGRTYYADSVKGRFTISRDNAKNTVYLQMNSLKPEDTAVYYCAAAILRTVPELGSRRTYYYWGQGTQVTVSS", "polyreactivity (PSR sort gate)": "high polyreactivity"}
{"sequence": "QVQLVESGGGLVQAGGSLRLSCAASGSTFYHNAMGWYRQAPGKERELVAAITSGTSTYYADSVKGRFTISRDNAKNTVYLQMNSLKPEDTAVYDCAADSPWGGGYFVLYNYWGQGTQVTVSS", "polyreactivity (PSR sort gate)": "low polyreactivity"}
{"sequence": "QVQLVESGGGLVQAGGSLRLSCAASGSTFYHNVMGWYRQAPGKERELVASIDTGDSTNYADSVKGRFTISRDNAKKTVYLQMNSLKPEDTAVYYCNAVWNTFISGRSYDYWGQGTQVTVSS", "polyreactivity (PSR sort gate)": "low polyreactivity"}
{"sequence": "QVQLVESGGGLVQAGGSLRLSCAASGSTFYHYAMGWYRQAPGKERELVASISHSGGRTFYADSVKGRFTISRDNAKNTVYLQMNSLKPEDTAVYYCAADWRTLTEYGYKGYYWGLGTQVTVSS", "polyreactivity (PSR sort gate)": "low polyreactivity"}
{"sequence": "QVQLVESGGGLVQAGGSLRLSCAASGSTFYINAMGWSRQAPGKEREFVAAIDWGGGTTYYADSVKGRFTISRDNAMNTVYLQMNRLKPEDTAVYYCAAERNYWSTQYYYWGQGTQVTVSS", "polyreactivity (PSR sort gate)": "high polyreactivity"}
{"sequence": "QVQLVESGGGLVQAGGSLRLSCAASGSTFYINAMRWYRPAPGKERELVAAISWSGGSTYYADSVKGRFTISRDNAKNTVYLQMNSLKPEDTAVYYCAADWYLGWSLDYDYWGQGTQVTVSS", "polyreactivity (PSR sort gate)": "low polyreactivity"}
{"sequence": "QVQLVESGGGLVQAGGSLRLSCAASGSTFYIYAMGWYIQAPGKERELVAAISTTDGTTYYADSVKGRFTISRDNAKNTVYLQMNSLKPEDTAVYYCAAEWFGSVQPAYDYWGQGTQVTVSS", "polyreactivity (PSR sort gate)": "high polyreactivity"}
{"sequence": "QVQLVESGGGLVQAGGSLRLSCAASGSTFYIYAMGWYRPAPGKERELVARISGSGGSTYYADSVKGRFTISRDNAKNTVYLQMNSLKPEDTAVYYCAADDIYKYYQYYAFPYYRYDYWGQGTQVTVSS", "polyreactivity (PSR sort gate)": "low polyreactivity"}
{"sequence": "QVQLVESGGGLVQAGGSLRLSCAASGSTFYIYAMGWYRQAPGKDRELVAAISGRGGSTYYADSVKGRFTISRDNAKNTVYLQMNSLKPEDTAVYYCATYSRQDHKYDYWGQGTQVTVSS", "polyreactivity (PSR sort gate)": "high polyreactivity"}
{"sequence": "QVQLVESGGGLVQAGGSLRLSCAASGSTFYIYAMGWYRQAPGKERELVAAINSGGGTNYADSVKGRFTISRDNAKNTVYLQMNSLKPEDTAVYYCAKTFYSLYWGQGTQVTVSS", "polyreactivity (PSR sort gate)": "low polyreactivity"}
{"sequence": "QVQLVESGGGLVQAGGSLRLSCAASGSTFYIYAMGWYRQAPGKERELVAAISWRGGRTYYADSVKGRFTISRDNAKNTVYLQMNSLKPEDTAVYYCAAAYLRWSGTYYYVDGYDYWGQGTQVTVSS", "polyreactivity (PSR sort gate)": "high polyreactivity"}
{"sequence": "QVQLVESGGGLVQAGGSLRLSCAASGSTFYIYAMGWYRQAPGKERELVAAITWSGGSTYYADSVKGRFTISRDNAKNTVYLQMNSQKPEDTAVYYCATKRARYSYDYWGQGTQVTVSS", "polyreactivity (PSR sort gate)": "high polyreactivity"}
{"sequence": "QVQLVESGGGLVQAGGSLRLSCAASGSTFYIYAMGWYRQAPGKEREMVARISGSGGSTYYADSVKGRFTISRDNAKNTVYLQMNSLKPEDTAVYYCAADDIYKYYQYYAVPYYRYDYWGQGTQVTVSS", "polyreactivity (PSR sort gate)": "low polyreactivity"}
{"sequence": "QVQLVESGGGLVQAGGSLRLSCAASGSTFYIYGMGWYRQAPGKERELVARISSGGSTYADSVKGRFTISRDNAKNTVYLQMNSLKPEDTAVYYCAAAAARTYRRYRYEGYYYWGQGTQVTVSS", "polyreactivity (PSR sort gate)": "high polyreactivity"}
{"sequence": "QVQLVESGGGLVQAGGSLRLSCAASGSTFYKYAMGWYRQAAGKERELVASISRSGGSTSYADSVKGRFTISRDNAKNTVYLQMNCLKPEDTAVYYCAATWRQHPGSMGYWGQGTQVTVSS", "polyreactivity (PSR sort gate)": "high polyreactivity"}
{"sequence": "QVQLVESGGGLVQAGGSLRLSCAASGSTFYKYAMGWYRQAPGKERELVAAISRGGSTYYADSVKGRFTISRDNAKNTVYLQMNSLKPEDTAVYYCAAETVSYYSKYDYWGQGTQVTVSS", "polyreactivity (PSR sort gate)": "low polyreactivity"}
